Where two headings read alike, the source gives them in different places. Bridge positions count the residues as written; N and C are the ends. Square brackets hold non-standard residues; d marks the D form. Ends that are not written are not given here. * marks the point of attachment. Glc = O-glucosyl on Ser side chain (Ser(OGlu)/Ser(OGlc)); NH(3,5-(CF3)2-benzyl) = FC(F)(F)c1cc(CN*)cc(C(F)(F)F)c1; OBzl(3,5-(CF3)2) = FC(F)(F)c1cc(CO*)cc(C(F)(F)F)c1; NH‑Bn(CF3)2 = C-terminal Bn(CF3)2 amide; Dmt = Cc1cc(O)cc(C)c1C[C@H](N)C(=O)O; Nle = CCCC[C@H](N)C(=O)O
What was measured:
[1] = molecular target: T1, human δ opioid receptor (human, UniProt P41143 1-372); test: cell-based or functional assay
T1 sequence (P41143 whole entry, stated change not applied): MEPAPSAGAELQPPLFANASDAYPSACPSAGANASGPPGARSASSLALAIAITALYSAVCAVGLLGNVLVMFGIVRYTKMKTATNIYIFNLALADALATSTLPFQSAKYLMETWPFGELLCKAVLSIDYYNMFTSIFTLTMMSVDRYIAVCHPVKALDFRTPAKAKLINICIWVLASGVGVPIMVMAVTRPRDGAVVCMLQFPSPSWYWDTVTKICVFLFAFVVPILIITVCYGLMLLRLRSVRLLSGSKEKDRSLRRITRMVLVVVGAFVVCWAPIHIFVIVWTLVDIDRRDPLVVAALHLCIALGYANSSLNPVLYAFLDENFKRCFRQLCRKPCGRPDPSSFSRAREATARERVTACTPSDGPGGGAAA

[2] = molecular target: T2, rat µ opioid receptor (rat, UniProt P33535 1-398); test: cell-based or functional assay
T2 sequence (P33535 whole entry): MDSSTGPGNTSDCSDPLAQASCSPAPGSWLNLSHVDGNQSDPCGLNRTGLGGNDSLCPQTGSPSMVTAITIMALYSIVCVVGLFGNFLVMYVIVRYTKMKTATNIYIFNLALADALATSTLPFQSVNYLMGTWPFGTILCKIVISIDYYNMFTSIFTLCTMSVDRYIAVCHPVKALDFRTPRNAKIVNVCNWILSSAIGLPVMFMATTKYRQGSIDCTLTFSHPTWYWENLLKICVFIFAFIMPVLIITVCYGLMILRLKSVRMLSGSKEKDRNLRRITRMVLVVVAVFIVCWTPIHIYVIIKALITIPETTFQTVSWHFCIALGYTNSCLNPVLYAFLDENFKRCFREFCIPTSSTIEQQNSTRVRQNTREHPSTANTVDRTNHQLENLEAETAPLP

[3] = molecular target: T3, µ opioid receptor of the guinea pig isolated ileum (guinea pig, UniProt P97266 1-98); test: cell-based or functional assay
T3 sequence (P97266 whole entry): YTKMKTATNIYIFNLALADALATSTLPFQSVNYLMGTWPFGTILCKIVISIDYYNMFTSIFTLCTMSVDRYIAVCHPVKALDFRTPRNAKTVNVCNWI

[4] = molecular target: T4, guinea pig NK1 receptor (guinea pig, UniProt P30547 1-407); test: cell-based or functional assay
T4 sequence (P30547 whole entry): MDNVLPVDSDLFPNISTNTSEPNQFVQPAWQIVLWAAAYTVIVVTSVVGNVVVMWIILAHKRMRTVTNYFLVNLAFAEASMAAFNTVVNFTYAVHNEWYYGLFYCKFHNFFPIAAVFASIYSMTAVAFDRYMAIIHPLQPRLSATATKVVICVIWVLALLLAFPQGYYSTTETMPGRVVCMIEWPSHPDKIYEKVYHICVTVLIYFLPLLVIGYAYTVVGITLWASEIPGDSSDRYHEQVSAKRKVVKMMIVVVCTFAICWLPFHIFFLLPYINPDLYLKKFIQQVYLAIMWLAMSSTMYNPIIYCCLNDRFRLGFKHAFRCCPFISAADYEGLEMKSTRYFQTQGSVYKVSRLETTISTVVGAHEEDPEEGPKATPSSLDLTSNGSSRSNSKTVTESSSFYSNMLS

[5] = molecular target: T2, rat µ opioid receptor; test: competition vs [3H]DAMGO, rMOR cell membranes
[6] = molecular target: T1, human δ opioid receptor; test: competition vs [3H]DPDPE, hDOR cell membranes
[7] = molecular target: T5, human NK1 receptor (human, UniProt P25103 1-407); test: competition vs [3H]Substance P, hNK1 CHO cell membranes
T5 construct: whole, on cells; membrane preparations of the transfected cells were used; also called hNK1; human neurokinin-1 receptor
T5 sequence (P25103 whole entry): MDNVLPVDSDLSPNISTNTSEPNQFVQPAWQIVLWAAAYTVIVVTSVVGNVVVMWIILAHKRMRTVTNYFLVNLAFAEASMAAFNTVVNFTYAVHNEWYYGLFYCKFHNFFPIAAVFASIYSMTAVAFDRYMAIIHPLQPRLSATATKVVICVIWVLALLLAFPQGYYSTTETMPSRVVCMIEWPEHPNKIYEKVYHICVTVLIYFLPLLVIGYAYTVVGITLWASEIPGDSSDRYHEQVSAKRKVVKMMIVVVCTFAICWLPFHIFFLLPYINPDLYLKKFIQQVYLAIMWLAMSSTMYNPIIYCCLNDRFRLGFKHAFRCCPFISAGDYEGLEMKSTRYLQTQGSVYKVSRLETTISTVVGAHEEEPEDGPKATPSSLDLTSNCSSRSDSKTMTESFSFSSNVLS

[8] = molecular target: T6, rat NK1 receptor (rat, UniProt P14600 1-407); test: competition vs [3H]Substance P, rNK1 CHO cell membranes
T6 construct: whole, on cells; membrane preparations of the transfected cells were used; also called rNK1; rNK-1
T6 sequence (P14600 whole entry): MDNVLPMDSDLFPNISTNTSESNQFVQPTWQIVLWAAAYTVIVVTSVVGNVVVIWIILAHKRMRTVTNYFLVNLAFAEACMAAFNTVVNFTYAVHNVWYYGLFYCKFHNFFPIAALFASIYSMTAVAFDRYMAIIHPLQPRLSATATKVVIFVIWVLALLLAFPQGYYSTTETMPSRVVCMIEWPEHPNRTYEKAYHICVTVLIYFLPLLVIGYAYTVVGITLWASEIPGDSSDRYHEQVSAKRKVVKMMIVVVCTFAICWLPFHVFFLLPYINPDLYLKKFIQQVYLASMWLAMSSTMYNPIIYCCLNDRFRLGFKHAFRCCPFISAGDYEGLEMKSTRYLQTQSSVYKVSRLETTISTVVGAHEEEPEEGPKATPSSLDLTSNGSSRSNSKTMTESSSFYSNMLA

[9] = molecular target: T7, guinea pig NK1 receptor (guinea pig, UniProt P30547 1-407); test: cell-based or functional assay; remark: listed apart in the source
T7 sequence (P30547 whole entry): as the sequence (P30547 whole entry) above

[10] = molecular target: T8, human δ opioid receptor (human, UniProt P41143 1-372); test: cell-based or functional assay; remark: listed apart in the source
T8 sequence (P41143 whole entry, stated change not applied): as the sequence (P41143 whole entry, stated change not applied) above

[11] = molecular target: T9, rat µ opioid receptor (rat, UniProt P33535 1-398); test: cell-based or functional assay; remark: listed apart in the source
T9 sequence (P33535 whole entry): as the sequence (P33535 whole entry) above

[12] = molecular target: µ opioid receptor of the guinea pig isolated ileum (guinea pig); test: cell-based or functional assay
[13] = molecular target: T7, guinea pig NK1 receptor; test: cell-based or functional assay; remark: listed apart in the source
[14] = molecular target: T8, human δ opioid receptor; test: ratio of Ki at rMOR to Ki at hDOR
[15] = molecular target: T9, rat µ opioid receptor; test: competition vs [3H]DAMGO, membranes of rMOR-transfected HN9.10 cells
[16] = molecular target: T8, human δ opioid receptor; test: competition vs [3H]DPDPE, membranes of hDOR-transfected HN9.10 cells
[17] = molecular target: T10, rat NK1 receptor (rat, UniProt P14600 1-407); test: competition vs [3H]substance P, membranes of rNK1-transfected CHO cells
T10 construct: whole, on cells; Assayed as membrane preparations of transfected CHO cells; also called rNK1; rNK-1
T10 sequence (P14600 whole entry): as the sequence (P14600 whole entry) above

[18] = molecular target: T10, rat NK1 receptor; test: radioligand competition vs [3H]substance P; reference value of L-732,138 (around 460 nM) is a reported one
[19] = molecular target: T3, µ opioid receptor of the guinea pig …; test: cell-based or functional assay; remark: listed apart in the source
[20] = molecular target: T4, guinea pig NK1 receptor; test: cell-based or functional assay; remark: listed apart in the source
[21] = molecular target: T1, human δ opioid receptor; test: competition vs [3H]DPDPE, hDOR cell membranes; remark: listed apart in the source
[22] = molecular target: T1, human δ opioid receptor; test: competition vs [3H]DPDPE, hDOR cell membranes; remark: listed apart in the source
[23] = molecular target: T5, human NK1 receptor; test: competition vs [3H]Substance P, hNK1 CHO cell membranes; remark: listed apart in the source
[24] = molecular target: T6, rat NK1 receptor; test: competition vs [3H]Substance P, rNK1 CHO cell membranes; remark: listed apart in the source
[25] = molecular target: T5, human NK1 receptor; test: competition vs [3H]Substance P, hNK1 CHO cell membranes; remark: listed apart in the source
[26] = molecular target: T6, rat NK1 receptor; test: competition vs [3H]Substance P, rNK1 CHO cell membranes; remark: listed apart in the source
[27] = molecular target: guinea pig NK1 receptor (guinea pig, UniProt P30547 1-407); test: cell-based or functional assay; remark: listed apart in the source
Target sequence in this assay (P30547 whole entry): as the sequence (P30547 whole entry) above

[28] = molecular target: µ opioid receptor of the guinea pig isolated ileum (guinea pig, UniProt P97266 1-98); test: cell-based or functional assay; remark: listed apart in the source
Target sequence in this assay (P97266 whole entry): as the sequence (P97266 whole entry) above

[29] = molecular target: T11, human NK1 receptor (human, UniProt P25103 1-407); test: radioligand competition vs [3H]substance P, membranes of hNK1 CHO cells
T11 construct: whole, on cells; Used as membrane preparations of transfected CHO cells; also called hNK1; human neurokinin-1 receptor
T11 sequence (P25103 whole entry): as the sequence (P25103 whole entry) above

[30] = molecular target: T12, rat NK1 receptor (rat, UniProt P14600 1-407); test: radioligand competition vs [3H]substance P, membranes of rNK1 CHO cells
T12 construct: whole, on cells; Used as membrane preparations of transfected CHO cells; also called rNK1; rat neurokinin-1 receptor
T12 sequence (P14600 whole entry): as the sequence (P14600 whole entry) above

[31] = molecular target: T1, human δ opioid receptor; test: cell-based or functional assay; remark: listed apart in the source
[32] = molecular target: T2, rat µ opioid receptor; test: cell-based or functional assay; remark: listed apart in the source
[33] = molecular target: T2, rat µ opioid receptor; test: competition vs [3H]DAMGO, rMOR cell membranes; remark: listed apart in the source
[34] = molecular target: T1, human δ opioid receptor; test: competition vs [3H]DPDPE, hDOR cell membranes; remark: listed apart in the source
[35] = molecular target: T5, human NK1 receptor; test: competition vs [3H]Substance P, hNK1 CHO cell membranes; remark: listed apart in the source
[36] = molecular target: T8, human δ opioid receptor; test: competition vs [3H]DPDPE, hDOR membranes

In the case of Y[dA]GFS(Glc)PLW-{NH(3,5-(CF3)2-benzyl)} (also called TY042) [TyrDAlaGlyPheSer(OGlu)ProLeuTrpNHBn(CF3)2], the “GTP binding EC50” value [1] is reported as 51.9 nM, the “GTP binding Emax” value [1] is reported as 47% and the “GTP binding EC50” value [2] is reported as 176 nM. For the same binder, the “GTP binding Emax” value [2] was 28%, the “GPI/LMMP IC50” value [3] was 1890 nM and the “GPI/LMMP SP antagonist Ke” value [4] was 2.83 nM. It also gave a Ki [5] of 256 nM, a Ki [6] of 58.5 nM and a Ki [7] of 0.27 pM. It also gave a Ki [8] of 1.5 nM.

For H-Y[dA]GFFPLW-{OBzl(3,5-(CF3)2)} (also: TFA salt, TFA salt; also called TY003) [H-Tyr-D-Ala-Gly-Phe-Phe-Pro-Leu-Trp-O-3,5-Bzl(CF3)2], the “fold improvement of Ke in GPI tissue over L-732,138” value [9] was 12 fold, the “[35S]GTP-γ-S binding EC50” value [10] was 20.8 nM and the “[35S]GTP-γ-S binding Emax” value [10] was 39%. For the same binder, the “[35S]GTP-γ-S binding LogEC50” value [10] was -7.68, the “[35S]GTP-γ-S binding EC50” value [11] was 58.7 nM and the “[35S]GTP-γ-S binding Emax” value [11] was 41%. The “[35S]GTP-γ-S binding LogEC50” value [11] was -7.23, the “GPI (µ) opioid agonist, % at 1 µM” value [12] was 7 % at 1 µM and the “Substance P GPI agonist (A50), contraction relative to KCl” value [13] was 0 % at 1 µM. For the same binder, the “Substance P GPI antagonist Ke” value [13] was 14.4 nM, the “Ki(µ)/Ki(δ)” value [14] was 1.9 and the Ki [15] was 28.3 nM. For the same binder, the LogIC50 [15] was -7.22, the Ki [16] was 14.6 nM and the LogIC50 [16] was -7.5. For the same binder, the IC50 [17] was 19.3 nM, the LogIC50 [17] was -7.72 and the “fold improvement of rNK1 affinity over L-732,138” value [18] was 25 fold.

For [Dmt][dA]GFMPLW-{NH(3,5-(CF3)2-benzyl)} (also called TY032) [DmtDAlaGlyPheMetProLeuTrpNHBn(CF3)2], the “GPI/LMMP IC50” value [19] was 18.6 nM, the “GPI/LMMP Substance P antagonist Ke” value [20] was 7.5 nM and the Ki [21] was 0.12 nM. The Ki [22] was 0.12 nM, the Ki [23] was 7.9 pM and the Ki [24] was 2.3 nM. The Ki [25] was 7.9 pM and the Ki [26] was 2.3 nM.

In the case of Y[dA]GF[Nle]PLS(Glc)W-{NH‑Bn(CF3)2} [TyrDAlaGlyPheNleProLeuSer(OGlu)TrpNHBn(CF3)2 (TY055)], the “GPI/LMMP SP antagonist Ke” value [27] is reported as 8.4 nM, the “GPI/LMMP opioid(mu) agonist IC50” value [28] is reported as 670 nM and the Ki [29] is reported as 0.052 nM. It also gave a Ki [30] of 33.9 nM.

B1: Tyr[DPenGlyPhePen]ProLeuTrpNHBn(CF3)2 (peptide)
peptide: YXGFXPLW
modifications: D-Pen at 2 and Pen at 5 (written X); disulfide 2-5; C-terminal NH-3,5-Bzl(CF3)2 amide
notes: cyclic; also called TY046
For B1, the “GTP binding EC50” value [31] was 17.3 nM, the “GTP binding EC50” value [32] was 28.8 nM and the Ki [33] was 2330 nM. For the same binder, the Ki [34] was 1.7 nM and the Ki [35] was 5.3 pM.

Y[dC]GF[Nle]P[dC]W-{NH(3,5-(CF3)2-benzyl)} (disulfide 2-7, also called TY038; TY38) [Tyr[DCysGlyPheNleProDCys]TrpNHBn(CF3)2] was tested, and the “fold lower affinity than TY027” value [36] was 85 fold.

— patent US8026218 (UNIVERSITY OF ARIZONA, dated 2011)
